In US20200024330A1 (published 2020):
Changes are numbered by the printed parent chain.

B1: 1456_P20 (PG20) (antibody, human IgG1, kappa, V domains shown)
VH: QVRLVQSGPEVKKPGSSVTVSCQASGGTFSSYAFTWVRQAPGQGLEWLGMVTPIFGEAKYSQRFEGRVTITADESTSTTSIELRGLTSEDTAIYYCARDRRAVPIATDNWLDPWGQGTLVTVSS
VL: DIQLTQSPSSLSASVGDRVSITCRASQTINNYLNWYQQTPGKAPKLLIYGASNLQNGVPSRFSGSGSGTDFTLTISSLQPEDFATYYCQQSFSTPRTFGQGTRLDIKR
B2: 1460_G14 (PGG14) (antibody, human IgG1, kappa, V domains shown)
VH: QVLLVQSGTEVKKPGSSVKVSCQASGGAFSSYAFSWVRQAPGQGLEWMGMITPVFGETKYAPRFQGRLTLTAEESLSTTYMELRSLTSDDTAFYYCTRDRRVVPMATDNWLDPWGQGTLVTVSS
VL: B1 VL with S20T, I21V, N30H, N31T, T39I, N53T, N56S, S76N, F92Y
B3: 1443_C16 (PG16) (TCN-116) (antibody, V domains shown)
VH: QEQLVESGGGVVQPGGSLRLSCLASGFTFHKYGMHWVRQAPGKGLEWVALISDDGMRKYHSDSMWGRVTISRDNSKNTLYLQFSSLKVEDTAMFFCAREAGGPIWHDDVKYYDFNDGYYNYHYMDVWGKGTTVTVSS
VL: QSALTQPASVSGSPGQTITISCNGTSSDVGGFDSVSWYQQSPGKAPKVMVFDVSHRPSGISNRFSGSKSGNTASLTISGLHIEDEGDYFCSSLTDRSHRIFGGGTKVTVLG
B4: 1496_C09 (PG9) (TCN-109) (antibody, V domains shown)
VH: QRLVESGGGVVQPGSSLRLSCAASGFDFSRQGMHWVRQAPGQGLEWVAFIKYDGSEKYHADSVWGRLSISRDNSKDTLYLQMNSLRVEDTATYFCVREAGGPDYRNGYNYYDFYDGYYNYHYMDVWGKGTTVTVSS
VL: QSALTQPASVSGSPGQSITISCNGTSNDVGGYESVSWYQQHPGKAPKVVIYDVSKRPSGVSNRFSGSKSGNTASLTISGLQAEDEGDYYCKSLTSTRRRVFGTGTKLTVLG
B5: 1495_C14 (PGC14) (antibody, human IgG1, lambda, V domains shown)
VH: DGHLVQSGVEVKKTGATVKISCKVSGYSFIDYYLHWVQRAPGKGLEWVGLIDPENGEARYAEKFQGRVTIIADTSIDTGYMEMRSLKSEDTAVYFCAAGAVGADSGSWFDPWGQGTLVTVSS
VL: SYELTQPPSVSVSPGQTASITCSGSKLGDKYVSWYQLRPGQSPILVMYENDRRPSGIPERFSGSNSGDTATLTISGTQALDEADFYCQAWETTTTTFVFFGGGTQLTVLG
B6: 1460_G14 (PGG14) (antibody, V domains shown)
VH: B2 VH
VL: B1 VL with S20T, I21V, N30H, N31T, T39I, N53T, N56S, S76N, F92Y
B7: 1460_G14 (PGG14) (antibody, V domains shown)
VH: B2 VH
VL: DIQLTQSPSSLSASVGDRVTVTCRASQTIHTYLNWYQQIPGKAPKLLIYGASTLQSGVPSRFSGSGSGTDFTLTINSLQPEDFATYYCQQSYSTPRTFGQGTRLDIK
notes: also called B cell culture plate 1460 well G14
B8: 1456_P20 (PG20) (antibody, V domains shown)
VH: B1 VH
VL: B7 VL with T20S, V21I, H30N, T31N, I39T, T53N, S56N, N76S, Y92F
notes: also called B cell culture plate 1456 well P20
B9: 1495_C14 (PGC14) (antibody, V domains shown)
VH: B5 VH
VL: SYELTQPPSVSVSPGQTASITCSGSKLGDKYVSWYQLRPGQSPILVMYENDRRPSGIPERFSGSNSGDTATLTISGTQALDEADFYCQAWETTTTTFVFFGGGTQLTVL
notes: also called B cell culture plate 1495 well C14

Each binder was assayed against HIV-1 93UG077 envelope protein (Env) on pseudovirus (HIV-1 isolate 93UG077) (assay: cell-based or functional assay).

Row | Binder | IC50 (µg/mL), pseudovirus neutralization
1 | B1 | > 50 µg/mL
2 | B2 | > 50 µg/mL
3 | B3 | > 50 µg/mL
4 | B4 | > 50 µg/mL
5 | B5 | > 50 µg/mL

These binders were tested against HIV-1 92BR020 envelope protein (Env) on pseudovirus (HIV-1 isolate 92BR020) (assay: cell-based or functional assay).

Row | Binder | IC50 (µg/mL), pseudovirus neutralization
6 | B1 | > 50 µg/mL
7 | B2 | > 50 µg/mL
8 | B3 | > 50 µg/mL
9 | B4 | > 50 µg/mL
10 | B5 | 0.64 µg/mL

These binders were tested against HIV-1 APV-13 envelope protein (Env) on pseudovirus (HIV-1 isolate APV-13) (assay: cell-based or functional assay).

Row | Binder | IC50 (µg/mL), pseudovirus neutralization
11 | B1 | > 50 µg/mL
12 | B2 | > 50 µg/mL
13 | B3 | > 50 µg/mL
14 | B4 | > 50 µg/mL
15 | B5 | > 50 µg/mL

These binders were tested against HIV-1 APV-17 envelope protein (Env) on pseudovirus (HIV-1 isolate APV-17) (assay: cell-based or functional assay).

Row | Binder | IC50 (µg/mL), pseudovirus neutralization
16 | B1 | > 50 µg/mL
17 | B2 | > 50 µg/mL
18 | B3 | > 50 µg/mL
19 | B4 | 26.4 µg/mL
20 | B5 | > 50 µg/mL

Each binder was assayed against HIV-1 APV-6 envelope protein (Env) on pseudovirus (HIV-1 isolate APV-6) (assay: cell-based or functional assay).

Row | Binder | IC50 (µg/mL), pseudovirus neutralization
21 | B1 | 25.8 µg/mL
22 | B2 | > 50 µg/mL
23 | B3 | 0.08 µg/mL
24 | B4 | 0.09 µg/mL
25 | B5 | 7.41 µg/mL

What follows are binders tested against HIV-1 93IN905 envelope protein (Env) on pseudovirus (HIV-1 isolate 93IN905) (assay: cell-based or functional assay).

Row | Binder | IC50 (µg/mL), pseudovirus neutralization
26 | B1 | > 50 µg/mL
27 | B2 | > 50 µg/mL
28 | B3 | 0.1 µg/mL
29 | B5 | > 50 µg/mL

Each binder was assayed against HIV-1 IAVI-C18 envelope protein (Env) on pseudovirus (HIV-1 isolate IAVI-C18) (assay: cell-based or functional assay).

Row | Binder | IC50 (µg/mL), pseudovirus neutralization
30 | B1 | > 50 µg/mL
31 | B2 | > 50 µg/mL
32 | B3 | 0.007 µg/mL
33 | B4 | 0.05 µg/mL
34 | B5 | > 50 µg/mL

The binders below were run against HIV-1 IAVI-C22 envelope protein (Env) on pseudovirus (HIV-1 isolate IAVI-C22) (assay: cell-based or functional assay).

Row | Binder | IC50 (µg/mL), pseudovirus neutralization
35 | B1 | > 50 µg/mL
36 | B2 | > 50 µg/mL
37 | B3 | 0.069 µg/mL
38 | B5 | > 50 µg/mL

The binders below were run against HIV-1 IAVI-C3 envelope protein (Env) on pseudovirus (HIV-1 isolate IAVI-C3) (assay: cell-based or functional assay).

Row | Binder | IC50 (µg/mL), pseudovirus neutralization
39 | B1 | > 50 µg/mL
40 | B2 | > 50 µg/mL
41 | B3 | 14.8 µg/mL
42 | B4 | 12.9 µg/mL
43 | B5 | 9.5 µg/mL

What follows are binders tested against HIV-1 92UG024 envelope protein (Env) on pseudovirus (HIV-1 isolate 92UG024) (assay: cell-based or functional assay).

Row | Binder | IC50 (µg/mL), pseudovirus neutralization
44 | B1 | > 50 µg/mL
45 | B2 | > 50 µg/mL
46 | B3 | > 50 µg/mL
47 | B5 | > 50 µg/mL

Each binder was assayed against HIV-1 92UG005 envelope protein (Env) on pseudovirus (HIV-1 isolate 92UG005) (assay: cell-based or functional assay).

Row | Binder | IC50 (µg/mL), pseudovirus neutralization
48 | B1 | > 50 µg/mL
49 | B2 | > 50 µg/mL
50 | B3 | > 50 µg/mL
51 | B4 | > 50 µg/mL
52 | B5 | > 50 µg/mL

What follows are binders tested against HIV-1 92TH021 envelope protein (Env) on pseudovirus (HIV-1 isolate 92TH021) (assay: cell-based or functional assay).

Row | Binder | IC50 (µg/mL), pseudovirus neutralization
53 | B1 | > 50 µg/mL
54 | B2 | > 50 µg/mL
55 | B3 | 0.13 µg/mL
56 | B5 | > 50 µg/mL

Each binder was assayed against HIV-1 CMU02 envelope protein (Env) on pseudovirus (HIV-1 isolate CMU02) (assay: cell-based or functional assay).

Row | Binder | IC50 (µg/mL), pseudovirus neutralization
57 | B1 | > 50 µg/mL
58 | B2 | > 50 µg/mL
59 | B3 | > 50 µg/mL
60 | B4 | > 50 µg/mL
61 | B5 | > 50 µg/mL

What follows are binders tested against aMLV envelope protein on pseudovirus (negative control) (aMLV) (assay: cell-based or functional assay).

Row | Binder | IC50 (µg/mL), pseudovirus neutralization
62 | B1 | > 50 µg/mL
63 | B2 | > 50 µg/mL
64 | B3 | > 50 µg/mL
65 | B4 | > 50 µg/mL
66 | B5 | > 50 µg/mL

What follows are binders tested against HIV-1 94UG103 envelope protein (Env) on pseudovirus (HIV-1 isolate 94UG103) (assay: cell-based or functional assay).

Row | Binder | IC50 (µg/mL), pseudovirus neutralization
67 | B1 | > 50 µg/mL
68 | B2 | > 50 µg/mL
69 | B3 | 0.008 µg/mL
70 | B4 | 0.17 µg/mL
71 | B5 | > 50 µg/mL

These binders were tested against HIV-1 92RW020 envelope protein (Env) on pseudovirus (HIV-1 isolate 92RW020) (assay: cell-based or functional assay).

Row | Binder | IC50 (µg/mL), pseudovirus neutralization
72 | B1 | 50 µg/mL
73 | B2 | > 50 µg/mL
74 | B3 | 0.004 µg/mL
75 | B4 | 0.06 µg/mL
76 | B5 | 28.6 µg/mL

These binders were tested against aMLV envelope protein on pseudotyped virus (negative control) (aMLV) (assay: cell-based or functional assay).

Row | Binder | IC50, pseudovirus neutralization, 1 hour Virus/Ab Incubation | IC50, pseudovirus neutralization, 18 hour Virus/Ab Incubation
77 | B6 | > 50 µg/mL | > 50 µg/mL

Each binder was assayed against T1, recombinant monomeric gp120 of HIV-1 isolate JR-CSF (HIV-1 isolate JR-CSF, UniProt P20871 32-503) (assay: anti-gp120 ELISA, B cell culture supernatant on captured gp120).
T1 construct: domain: gp120

Row | Binder | ELISA OD
78 | B7 | 3.49 OD
79 | B8 | 3.78 OD
80 | B9 | 3.76 OD
